According to PMC10643139:

Assays:
Test in all cases: NanoBRET
[1] = molecular target: Halo-SSX-C^E184* (SSX-C mutant lacking the last five amino acids); details: live HEK293T cells; mean ± S.E.M of n = 3 biological replicates; parent: est. 40; read off a plot
[2] = molecular target: Halo-SSX-C^ΔRD (SSX-C with a deletion of the SSXRD); details: live HEK293T cells; mean ± S.E.M of n = 3 biological replicates; parent: est. 19; read off a plot
[3] = molecular target: Halo-SSX-C (HaloTag fused to the SSX1 C-terminal region present in SS18-SSX1); details: live HEK293T cells; mean ± S.E.M of n = 3 biological replicates; parent: est. 72; read off a plot

Q: How did the response [1] turn out when “histone H2A fused to NanoLuc luciferase (NLuc-H2A) (from UniProt P0C0S8) K118R; K119R” was run?
A: The response was 36 mBU.

Q: And the response [2]?
A: Its response is 16 mBU.

Q: What about the response [3] of the same substance?
A: The response was 42 mBU.
